Test results reported in article PMC5494299.

Target: CagV (Helicobacter pylori (endogenous in strain 26695))
Assay: cross-linking; 5 mM DSP added to wild‐type H. pylori extract (0.1% DDM, 0.2% sarcosine) on ice for 25 min; SDS/PAGE and western blot with anti‐CagV antibody (mice); ΔcagV extract as control

Substance: CagV (natural protein)
- stoichiometry N: 2
